We go through 1 protein from publication PMC13466322, “Immunoglobulin Superfamily Protein BTNL9 Functions as a Non-Canonical Transcriptional Regulator to Suppress NSCLC Through Cell Cycle and p53 Pathways” (International Journal of Molecular Sciences, 2026).

The data set deals with the molecule itself. Briefly: native gel or EMSA; lysates of A549 and NCI-H460 cells in RIPA buffer; non-reducing LDS sample buffer; NativePAGE Bis-Tris 3-12% gel, run 1.5 h; Western blot; interpreted qualitatively. A general note: A gel shift assay detects complexes by their altered migration in electrophoresis.

B1: Butyrophilin-like 9 (BTNL9), wild type, FLAG-tagged or AM-tagged (natural protein, human, UniProt Q6UXG8-1 35-535, looked up)
chain: SSEVKVLGPEYPILALVGEEVEFPCHLWPQLDAQQMEIRWFRSQTFNVVHLYQEQQELPGRQMPAFRNRTKLVKDDIAYGSVVLQLHSIIPSDKGTYGCRFHSDNFSGEALWELEVAGLGSDPHLSLEGFKEGGIQLRLRSSGWYPKPKVQWRDHQGQCLPPEFEAIVWDAQDLFSLETSVVVRAGALSNVSVSIQNLLLSQKKELVVQIADVFVPGASAWKSAFVATLPLLLVLAALALGVLRKQRRSREKLRKQAEKRQEKLTAELEKLQTELDWRRAEGQAEWRAAQKYAVDVTLDPASAHPSLEVSEDGKSVSSRGAPPGPAPGHPQRFSEQTCALSLERFSAGRHYWEVHVGRRSRWFLGACLAAVPRAGPARLSPAAGYWVLGLWNGCEYFVLAPHRVALTLRVPPRRLGVFLDYEAGELSFFNVSDGSHIFTFHDTFSGALCAYFRPRAHDGGEHPDPLTICPLPVRGTGVPEENDSDTWLQPYEPADPALDWW
notes: bZIP domain annotated at residues 281-317; Two differently tagged copies of the same wild-type protein (FLAG copy as bait, AM-tag copy as prey) are written as one molecule; Each copy carries only one of the two tags; also called WT; BTNL9-FLAG; source: A549 and NCI-H460 cells, lentiviral infection, in lysate
Turning to B1, the stoichiometry N (as a rule, the number of molecules, sites or subunits per partner or assembly) is 2.
